Source: paper PMC10543311
Blank lines part the entries; values can stand above or below the binder they belong to.

Key:
Conditions in all cases: remark: other sources report otherwise
[1] = biological target: T1, SNAP-tagged FUS (Fused in sarcoma), P35637; test: nanoparticle tracking analysis (NTA); mesoscale clusters in sub-saturated solutions; 100 mM KGlu and 100 mM KCl, 25 °C, recorded 6 minutes after sample preparation
T1 chain: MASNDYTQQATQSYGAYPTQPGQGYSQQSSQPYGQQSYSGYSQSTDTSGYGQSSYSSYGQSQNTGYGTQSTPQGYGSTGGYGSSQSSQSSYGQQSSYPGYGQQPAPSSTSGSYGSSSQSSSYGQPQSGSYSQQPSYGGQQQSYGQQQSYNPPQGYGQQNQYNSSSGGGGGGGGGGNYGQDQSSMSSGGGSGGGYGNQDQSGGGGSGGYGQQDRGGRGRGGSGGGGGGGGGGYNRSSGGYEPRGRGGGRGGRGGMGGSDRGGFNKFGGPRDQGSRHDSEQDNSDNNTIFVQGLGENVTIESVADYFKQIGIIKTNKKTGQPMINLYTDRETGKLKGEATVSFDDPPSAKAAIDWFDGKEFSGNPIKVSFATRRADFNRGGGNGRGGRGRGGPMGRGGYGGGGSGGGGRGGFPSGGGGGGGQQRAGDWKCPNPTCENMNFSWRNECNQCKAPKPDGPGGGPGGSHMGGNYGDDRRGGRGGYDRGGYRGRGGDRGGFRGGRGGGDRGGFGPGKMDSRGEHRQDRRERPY

[2] = biological target: T1, SNAP-tagged FUS (Fused in sarcoma), …; test: dynamic light scattering (DLS); derived count rate and size distributions in sub-saturated solutions; 20 mM Tris.Glu pH 7.4, 100 mM KGlu (with residual KCl from the stock), 25 °C; self-association into clusters
[3] = biological target: T2, untagged FUS (Fused in sarcoma), P35637; test: nanoparticle tracking analysis (NTA); mesoscale clusters in sub-saturated solutions; 100 mM KGlu and 100 mM KCl, 25 °C, recorded 6 minutes after sample preparation
T2 chain: T1 chain

- abundance of mesoscale clusters in 100 mM KGlu relative to 100 mM KCl [1]: 4 fold
- derived count rate in 100 mM KGlu relative to 100 mM KCl [2]: < 3 fold
B1: SNAP-tagged FUS (Fused in sarcoma), P35637 1-526 (natural protein)
chain: T1 chain
modifications: here or on the partner: Alexa 488 (AF488) or Alexa 647 (AF647) label in the smFRET and FCS experiments; unlabelled elsewhere; Alexa 488 (AF488) or Alexa 647 (AF647) label in the smFRET and FCS experiments; unlabelled elsewhere

- abundance of mesoscale clusters in 100 mM KGlu relative to 100 mM KCl [3]: 4 fold
B2: untagged FUS (Fused in sarcoma), P35637 1-526 (natural protein)
chain: T1 chain
